Residue numbers refer to the chain shown, from its start. Each block holds one binder with its values, some of them ahead of it.
Tests used:
human sclerostin (SOST) [1] = target: T1, human sclerostin (SOST) (human, UniProt Q9BQB4 24-213); experiment: ELISA binding to human sclerostin (assay not given; taken from the text of Example 1)
T1 construct: also called human SOST; h-SOST
T1 sequence (looked up): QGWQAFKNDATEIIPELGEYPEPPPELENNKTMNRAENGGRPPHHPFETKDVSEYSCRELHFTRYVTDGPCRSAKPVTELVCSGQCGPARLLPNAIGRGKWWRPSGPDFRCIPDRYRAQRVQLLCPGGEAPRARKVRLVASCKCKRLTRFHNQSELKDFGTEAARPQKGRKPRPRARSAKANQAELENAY

human sclerostin (SOST) [2] = target: T1, human sclerostin (SOST); experiment: blocking of the binding of human SOST to human LRP-6
human sclerostin (SOST) [3] = target: T1, human sclerostin (SOST); experiment: binding ELISA, antigen-receptor binding blocking experiments, Biacore; no numbers given

- EC50 (human sclerostin (SOST) [1]): 0.701 nM
- IC50 (human sclerostin (SOST) [2]): 9.91 nM
B1: murine anti-human SOST monoclonal antibody Ab-1 (antibody, V domains shown)
VH: EVQLQQSGPELVKPGTSVKIPCQTSGYTFTDYNLDWLKQRPGESLEWIGDIDPNNGDILYNQKFRDKATLTVDTSSNTAYLELRSLTSEDTAVYYCARRWAYYFDYWGQGTTLTISS
VL: NIVMTQTPKLLFVSAGDRITITCKASQSVSNDVAWYQQKPGQSPKLLIYYTSNRFTGVPDRFTGSGYGTDFTLTINTVQAEDLAVYFCQQDYSSPVTFGAGTKLELK
notes: Murine hybridoma antibody; also called monoclonal hybridoma cell strain Ab-1; murine antibody Ab-1

- binding result (human sclerostin (SOST) [3]): binds
B4: humanized anti-SOST antibody Ab-9 (antibody, human IgG4 S228P, kappa, V domains shown)
VH: EVQLVQSGAEVKKPGASVKVSCKASGYTFTDYNLDWLRQAPGEGLEWIGDIDPNNGDILYNQKFRDRVTMTTDTSTSTAYMELRSLRSDDTAVYYCARRWAYYFDYWGQGTTVTVSS
VL: NIVMTQSPSSLSASVGDRVTITCKASQSVSNDVAWYQQKPGKSPKLLIYYTSNRFTGVPDRFSGSGSGTDFTLTISSLQPEDFATYFCQQDYSSPVTFGGGTKVEIKR
notes: Human IgG4 heavy chain and kappa light chain

The remaining lines, values behind:

B2: humanized anti-SOST antibody Ab-5 (antibody, human IgG4 S228P, kappa, V domains shown)
VH: B4 VH with N55D
VL: B4 VL with N1D
notes: as for B4
- binding result (human sclerostin (SOST) [3]): binds

B3: humanized anti-SOST antibody Ab-10 (antibody, human IgG1, kappa, V domains shown)
VH: B4 VH with L37V, E43Q, I48M
VL: B4 VL with N1D, V3Q, S43A, D60S, F87Y
notes: kappa light chain
- binding result (human sclerostin (SOST) [3]): binds
